# Measured values published in patent publication US20220056072A1.
# How the values were obtained:
# [1] = molecular target: High Capacity NeutrAvidin Agarose Resin (UniProt P02701); assay: pull-down on NeutrAvidin Agarose resin, SDS-PAGE of the fractions
# [2] = molecular target: High Capacity NeutrAvidin Agarose Resin (UniProt P02701); assay: pull-down on NeutrAvidin Agarose resin, 1 uM protein, 2 hrs at 4 C; bound fraction from A280 of flow-through and wash
# Chain of UniProt P02701 (P02701 25-152): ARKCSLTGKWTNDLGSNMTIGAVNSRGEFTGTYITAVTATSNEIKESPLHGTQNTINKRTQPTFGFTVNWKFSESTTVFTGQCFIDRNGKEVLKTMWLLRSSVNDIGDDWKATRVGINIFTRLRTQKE
percent unbound [1] [%],binding efficiency (percent of protein bound to resin) [2] [%],Substance
35,65,IPL biotin-labeled mRuby3
–,10,unlabeled mRuby3
